Target: Human IL-21 receptor on Baf3/KZ134/huIL-21R cells (human) (UniProt Q9HBE5)
Test: cell-based or functional assay

Chain of Human IL-21 receptor on Baf3/KZ134/huIL-21R cells (human) (Q9HBE5 20-538): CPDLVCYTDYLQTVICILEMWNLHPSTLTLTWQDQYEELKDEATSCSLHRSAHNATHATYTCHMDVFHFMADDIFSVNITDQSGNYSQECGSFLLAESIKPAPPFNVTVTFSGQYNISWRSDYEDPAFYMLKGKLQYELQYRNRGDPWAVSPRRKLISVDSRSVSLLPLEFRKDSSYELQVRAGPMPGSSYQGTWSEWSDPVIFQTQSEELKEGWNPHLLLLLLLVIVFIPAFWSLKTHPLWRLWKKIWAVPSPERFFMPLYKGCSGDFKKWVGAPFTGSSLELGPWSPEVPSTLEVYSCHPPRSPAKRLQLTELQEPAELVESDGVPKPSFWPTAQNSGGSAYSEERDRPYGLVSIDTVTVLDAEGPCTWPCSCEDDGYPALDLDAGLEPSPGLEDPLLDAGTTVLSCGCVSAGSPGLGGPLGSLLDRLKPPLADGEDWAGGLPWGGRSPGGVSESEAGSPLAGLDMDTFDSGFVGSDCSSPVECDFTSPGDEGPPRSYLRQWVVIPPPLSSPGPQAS

Recombinant rat IL-21 (from UniProt A3QPB9 18-146) (ligand)
EC90 in STAT-Luciferase assay: 1.08 nM
